The source of these data is article PMC9173704.

Experiment [1] concerns the target recombinant streptococcal enolase (Sen) from GAS strain AP53 (Streptococcus pyogenes (GAS) strain AP53). Description: AUC; sedimentation velocity, 20°C, 50 mM Na phosphate/0.1 M NaCl, pH 7.4; 30,000 rpm for Sen, 35,000 rpm for hEno; three protein dilutions; no concentration-dependent dissociation down to at least 0.1 mg/ml.
Experiment [2] has the same target. The experiment is described as follows: SEC-MALS; each protein 100 μl of 1 mg/ml on a WTC-030S5 column, PBS, pH 7.4, flow rate 0.5 ml/min.
Experiment [3] shares this target.
Experiment [4] deals with recombinant mature PAM (Asn1-Gln351, plus (His)6) (Streptococcus pyogenes (GAS) strain AP53) (UniProt P49054).
Experiment [5] concerns the target recombinant streptococcal enolase (Sen) from GAS strain AP53 (Streptococcus pyogenes (GAS) strain AP53). Description: ELISA; Sen coated on high protein binding 96-well plates overnight at 4°C; hPg added at 25°C for 1 h; detected with HRP-conjugated monoclonal mouse-anti hPg; saturation curve. (An ELISA detects its analyte on a solid surface through an enzyme-linked reagent.)

For experiment [6] the target is unchanged. The experiment is described as follows: SPR; Sen amine-coupled to a CM-5 chip (~1,000 RU); hPg as analyte, 9 to 2,400 nM; 25°C, HBS-EP+ (10 mM Na-Hepes/150 mM NaCl/3 mM EDTA/0.05% polysorbate 20, pH 7.4); equilibrium (affinity) fit. Background: Surface plasmon resonance follows binding to a sensor surface in real time, without labels.
The target of experiment [7] is plasminogen (Homo sapiens) (UniProt P00747). To be noted: cited from earlier work.
Sequence of UniProt P00747 (P00747 20-810): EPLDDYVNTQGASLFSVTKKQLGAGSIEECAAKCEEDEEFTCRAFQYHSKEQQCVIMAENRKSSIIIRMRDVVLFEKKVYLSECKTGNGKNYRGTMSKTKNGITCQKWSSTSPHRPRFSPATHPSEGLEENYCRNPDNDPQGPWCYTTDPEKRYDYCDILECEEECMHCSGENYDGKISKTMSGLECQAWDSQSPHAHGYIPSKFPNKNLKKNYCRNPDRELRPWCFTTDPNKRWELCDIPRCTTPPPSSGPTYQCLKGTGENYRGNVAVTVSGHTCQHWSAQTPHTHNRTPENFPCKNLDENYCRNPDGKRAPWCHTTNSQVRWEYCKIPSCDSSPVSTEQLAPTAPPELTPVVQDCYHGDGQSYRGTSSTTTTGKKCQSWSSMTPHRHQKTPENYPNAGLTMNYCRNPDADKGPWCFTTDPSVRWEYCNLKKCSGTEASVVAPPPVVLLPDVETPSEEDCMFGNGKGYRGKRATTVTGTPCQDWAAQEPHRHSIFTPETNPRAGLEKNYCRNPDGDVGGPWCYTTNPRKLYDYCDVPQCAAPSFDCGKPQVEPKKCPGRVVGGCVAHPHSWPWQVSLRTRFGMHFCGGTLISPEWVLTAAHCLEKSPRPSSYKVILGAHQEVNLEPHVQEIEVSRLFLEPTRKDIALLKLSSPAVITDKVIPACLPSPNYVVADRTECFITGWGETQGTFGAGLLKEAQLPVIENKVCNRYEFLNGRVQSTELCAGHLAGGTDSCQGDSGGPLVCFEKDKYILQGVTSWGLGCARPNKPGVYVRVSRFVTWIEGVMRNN

Sequence of recombinant streptococcal enolase (Sen) from GAS strain AP53 (Streptococcus pyogenes (GAS) strain AP53) (A2RFE3 whole entry): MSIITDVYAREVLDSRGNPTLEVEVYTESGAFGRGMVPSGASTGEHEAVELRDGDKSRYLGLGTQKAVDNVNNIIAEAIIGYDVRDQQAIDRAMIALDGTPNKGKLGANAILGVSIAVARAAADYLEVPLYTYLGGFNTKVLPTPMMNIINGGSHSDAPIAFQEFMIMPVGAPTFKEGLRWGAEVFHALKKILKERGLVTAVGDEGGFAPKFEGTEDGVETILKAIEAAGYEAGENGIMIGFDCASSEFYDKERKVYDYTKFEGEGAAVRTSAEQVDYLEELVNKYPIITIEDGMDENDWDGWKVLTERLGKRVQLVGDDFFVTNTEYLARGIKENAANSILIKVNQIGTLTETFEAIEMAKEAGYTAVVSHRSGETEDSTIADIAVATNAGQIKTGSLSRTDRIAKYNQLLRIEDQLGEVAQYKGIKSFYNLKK

One may read the stoichiometry N as a count of units in the complex or per binding partner. In the case of “recombinant streptococcal enolase (Sen) from GAS strain AP53 (enzyme)”, the stoichiometry N in experiment [1] and in experiment [2] was 8 throughout.
Regarding “recombinant human plasminogen (hPg) (natural protein)”, the rate of activation of hPg by tPA with Sen bound to DOPG vesicles against vesicles without Sen, hydrolysis of S2251 in experiment [3] lay within 6 to 8 fold. The rate of activation of hPg by tPA on PAM-coated plates against free hPg, hydrolysis of S2251 in experiment [4] was found to be 2.5 fold. For the same substance, the C50 was determined as 125 nM in experiment [5] and 111 nM in experiment [6].
A word on the Kd: it is the free concentration of one partner at which half of the binding sites on the other are occupied at equilibrium, for simple one-to-one binding. Turning to “plasminogen-binding M-protein (PAM) (from UniProt P49054)”, in experiment [7], the Kd was 1 nM.
